Positions count from the first letter of the chain named. Numbers in names are those of the source.
B1: Gal3C[T243C, K139I, K196I]: Gal3C[T243C] variant with lysines K139 and K196 replaced by isoleucines (protein)
chain: MADNFSLHDALSGSGNPNPQGWPGAWGNQPAGAGGYPGASYPGAYPGQAPPGAYPGQAPPGAYPGAPGAYPGAPAPGVYPGPPSGPGAYPSSGQPSATGAYPATGPYGAPAGPLIVPYNLPLPGGVVPRMLITILGTVIPNANRIALDFQRGNDVAFHFNPRFNENNRRVIVCNTKLDNNWGREERQSVFPFESGIPFKIQVLVEPDHFKVAVNDAHLLQYNHRVKKLNEISKLGISGDIDLCSASYTMI
B2: Gal3C[T243C,K139I,K196I,K199I]: Gal3C[T243C] variant with lysines K139, K196 and K199 replaced by isoleucines (protein)
chain: B1 chain with K199I
B3: Gal3C: carbohydrate recognition domain of human galectin-3, residues A111 to E252; SEQ ID NO: 13 (protein)
chain: MAGPLIVPYNLPLPGGVVPRMLITILGTVKPNANRIALDFQRGNDVAFHFNPRFNENNRRVIVCNTKLDNNWGREERQSVFPFESGKPFKIQVLVEPDHFKVAVNDAHLLQYNHRVKKLNEISKLGISGDIDLTSASYTMILEHHHHHH

Key:
[1] = Variable temperature circular dichroism (CD) thermal unfolding; format: physicochemical; conditions: for Tm1 ± StDev: normalized CD at 220 nm vs. temperature, 3 replicates averaged, ramp 30-90° C. at 1° C. per minute; for thermal unfolding behaviour / formation of unfolding intermediate: result in words, for polymer conjugates the selected SEC fractions; for Tm2 ± StDev: second unfolding transition, cells printed as ND with footnote b
Method: CD spectroscopic data were recorded with an Applied Photophysics™ Chirascan spectrophotometer equipped with a Quantum Northwestern Peltier temperature control device and operating with Chirascan v4.7.0 and Pro-Data™ Viewer software. Samples were prepared in PBS at final concentrations of 10 μM. All samples were contained in 2 mm tapered quartz cuvettes, and a temperature probe was inserted through the cuvette cap to monitor the sample temperature in real time. The following parameters were used for constant temperature experiments: CD signal measured in millidegrees, bandwidth of 1.0 nm, wavelength scan from 200-280 nm, step size of 2.0 nm. Spectra were background subtracted against the sample buffer. For thermal unfolding experiments, a linear thermal ramp was applied from 30° C. to 90° C. at 1° C. per minute. All spectra were measured in triplicate, and data were normalized to account for slight differences in protein concentration.
To calculate melting temperatures of unconjugated Gal3C, Gal3C[T243C], and Gal3C[T243C] variants containing lysine replacements, the normalized data were fit to a Boltzmann sigmoidal function in Origin v8.5. For the data fitting, no parameters were fixed, and the ‘x’ parameter defined as the center of the data was interpreted as the melting temperature (Tm). Variable temperature CD data of PEGylated Gal3C[T243C] and Gal3C[T243C] variants were fit with a sum of two Boltzmann sigmoidal functions, as shown below:
where ‘A1’, ‘A2’, and ‘A3’ represent three plateaus of the CD signal, ‘dx1’ and ‘dx2’ are the change in x between the plateaus for each melting transition, and ‘x1’ and ‘x2’ are the two Tm values extracted by the fit for the first and second unfolding transitions, respectively. Because the third plateau, A3, occurred at temperatures higher than the experimentally accessible range, this value was estimated. A single wavelength for plotting on the y-axis was selected by calculating the wavelength of greatest CD signal change for each PEGylated construct.
To record a CD spectrum of Gal3C[T243C] with free PEG, a stock solution of methoxy-PEG (mPEG) in 1×PBS was added immediately before the experiment to a solution containing protein (20 μM, 1 ×PBS) to a final concentration of 22 μM mPEG. All thermal melt parameters were the same as listed in the above described experiments.
CD spectroscopic data were recorded with an Applied Photophysics Chirascan spectrophotometer equipped with a Quantum Northwestern Peltier temperature control device and operating with Chirascan v4.7.0 and Pro-Data Viewer software, following procedures used in our previous study.^4 Spectra were background subtracted against the sample buffer. For thermal unfolding experiments, a linear thermal ramp was applied from 30° C. to 90° C. at 1° C. per minute with samples concentrated to 10 μM in PBS. All spectra were measured in triplicate, and data were normalized to account for slight differences in protein concentration.
Full wavelength (200-280 nm) CD spectra for each construct (FIG. 43) were used to calculate a wavelength of greatest change (222 or 224 nm) to create single wavelength CD vs. temperature plots (FIG. 30H-J and FIG. 31F-G). The single wavelength CD signal vs. temperature plot of Gal3C[T243C] used data acquired at 220 nm, which was the wavelength of greatest change for the unmodified protein. To calculate melting temperatures, the normalized data were fit to a Boltzmann sigmoidal function in Origin v8.5. For the data fitting, no parameters were fixed, and the ‘x’ parameter defined as the center of the data was interpreted as the melting temperature (Tm).

[2] = Equilibrium binding of lactose, intrinsic tryptophan fluorescence; conditions: ligand lactose; average ± standard deviation of 3 replicated experiments; PBS; read-out: Kd (equilibrium binding constant)
Method: (§1) Equilibrium binding data were recorded using a protocol adapted from a previous procedure from Restuccia, et al (38). Intrinsic tryptophan fluorescence was monitored using a Cary Eclipse™ Fluorescence Spectrophotometer (Agilent) operating with Cary Eclipse™ WinFLR software version 1.2 in ‘Scan Mode’. The instrument method parameters were as follows: excitation wavelength was 280 nm, the acquisition range was from 290 nm to 440 nm and the photomultiplier tube sensitivity was set to ‘medium’. Samples were prepared at final concentrations of 1 μM for Gal3C[T243C] or 5 μM Gal3C[T243C]-PEG in 800 ∥L, in PBS for each titration. Samples were pipetted into 0.7×0.7 cm quartz cuvettes with a micro stir bar. Each new experiment was first zeroed against PBS to remove the small background signal from the buffer. […]
The binding affinity and specificity of Gal3C[T243C]-PEG was compared with Gal3C[T243C] and Gal3C (see FIG. 1C, FIG. 9 and FIG. 10) via an inherent tryptophan fluorescence assay optimized to ensure equilibrium binding conditions. Binding of lactose or LacNac quenches the fluorescence of W181, located adjacent to the bound sugar in the crystal structure of Gal3C, thus permitting direct measurement of ligand Kd values.

[3] = Equilibrium binding of LacNac, intrinsic tryptophan fluorescence; conditions: ligand LacNac; average ± standard deviation of 3 replicated experiments; PBS; read-out: Kd (equilibrium binding constant)
Method: as §1
The binding affinity and specificity of Gal3C[T243C]-PEG was compared with Gal3C[T243C] and Gal3C (see FIG. 1C, FIG. 9 and FIG. 10) via an inherent tryptophan fluorescence assay optimized to ensure equilibrium binding conditions. Binding of lactose or LacNac quenches the fluorescence of W181, located adjacent to the bound sugar in the crystal structure of Gal3C, thus permitting direct measurement of ligand Kd values. […]

breast cancer = breast cancer animal models; cited from earlier work

Molecule	Tm1 ± StDev [1]	Tm1 ± StDev ([1]; listed as Gal3C[T243C,K139I])	thermal unfolding behaviour / formation of unfolding intermediate [1]	Tm2 ± StDev [1]	Tm / Tm1 ([1]; values of Summary of Results, Tm for unconjugated protein, Tm1 for PEG conjugate)	Tm1 ± StDev ([1]; listed as Gal3C[T243C,K139I,K196I])	Kd [2]	Kd [3]	fitted melting temperature (Tm) ([1]; FIG. 13, normalized CD intensity at 220 nm, Boltzmann sigmoidal fit)	tumor growth (breast cancer)
Gal3C[T243C, K139I]: Gal3C[T243C] variant with lysine K139 replaced by isoleucine	52.5 ± 0.4 °C	52.5 °C	cooperative one step unfolding	ND^b (Higher than detectable by instrument (>90° C.))	52.7 °C	–	–	–	–	–
B1	60.5 ± 0.6 °C	–	cooperative one step unfolding	ND^b (Higher than detectable by instrument (>90° C.))	–	60.5 °C	–	–	–	–
B2	–	–	significantly altered unfolding profile	–	–	–	–	–	–	–
B3	58.8 ± 0.6 °C	–	–	–	–	–	529 ± 125 µM	231 ± 32.3 µM	58.4 °C	inhibiting tumor growth
